Test [1] concerns the target fibronectin-collagen interactions (Homo sapiens, UniProt P02751). The test is described as follows: Blocking of fibronectin-collagen interactions in cell culture. Format: cell-based. The conditions noted are these: cell culture experiments.
In another test the test system is human saphenous veins. The test is described as follows: Ex vivo cultured human saphenous veins, intimal thickening. The conditions noted are these: 10× higher levels than 100-500 nM. Here is the method: Saphenous veins were cut into 0.5 cm segments, and processed immediately (●) or cultured in 10% FBS/M199 containing 15 μM control III-11c peptide (▪) or pUR4 (▴) at 37° C. for 14 days. Veins were fixed, paraffin embedded, sectioned, and stained. Morphometric analysis was performed on six randomly chosen sections using Image-Pro Plus software. The intima/media ratio was determined by dividing intima area by media area. Paired student t-test was used to analyze the data. Data are expressed as mean±S.E.M. *p<0.05.
Human saphenous veins cultured in serum containing media develop intimal hyperplasia after 14 days in culture (Soyombo et al., “Intimal Proliferation in an Organ Culture of Human Saphenous Vein,” Am J Pathol. 137(6):1401-1410 (1990); Angelini et al., “Smooth Muscle Cell Proliferation in Response to Injury in an Organ Culture of Human Saphenous Vein,” Eur J Vasc Surg. 5(1):5-12 (1991); and Slomp et al., “Nature and Origin of the Neointima in Whole Vessel Wall Organ Culture of the Human Saphenous Vein,” Virchows Arch. 428(1):59-67 (1996), which are hereby incorporated by reference in their entirety). This system thus provides an ex vivo model system for studying mechanisms that lead to intimal hyperplasia that has distinct advantages over in vitro culture systems. […]

Chain of fibronectin-collagen interactions (P02751 32-2477): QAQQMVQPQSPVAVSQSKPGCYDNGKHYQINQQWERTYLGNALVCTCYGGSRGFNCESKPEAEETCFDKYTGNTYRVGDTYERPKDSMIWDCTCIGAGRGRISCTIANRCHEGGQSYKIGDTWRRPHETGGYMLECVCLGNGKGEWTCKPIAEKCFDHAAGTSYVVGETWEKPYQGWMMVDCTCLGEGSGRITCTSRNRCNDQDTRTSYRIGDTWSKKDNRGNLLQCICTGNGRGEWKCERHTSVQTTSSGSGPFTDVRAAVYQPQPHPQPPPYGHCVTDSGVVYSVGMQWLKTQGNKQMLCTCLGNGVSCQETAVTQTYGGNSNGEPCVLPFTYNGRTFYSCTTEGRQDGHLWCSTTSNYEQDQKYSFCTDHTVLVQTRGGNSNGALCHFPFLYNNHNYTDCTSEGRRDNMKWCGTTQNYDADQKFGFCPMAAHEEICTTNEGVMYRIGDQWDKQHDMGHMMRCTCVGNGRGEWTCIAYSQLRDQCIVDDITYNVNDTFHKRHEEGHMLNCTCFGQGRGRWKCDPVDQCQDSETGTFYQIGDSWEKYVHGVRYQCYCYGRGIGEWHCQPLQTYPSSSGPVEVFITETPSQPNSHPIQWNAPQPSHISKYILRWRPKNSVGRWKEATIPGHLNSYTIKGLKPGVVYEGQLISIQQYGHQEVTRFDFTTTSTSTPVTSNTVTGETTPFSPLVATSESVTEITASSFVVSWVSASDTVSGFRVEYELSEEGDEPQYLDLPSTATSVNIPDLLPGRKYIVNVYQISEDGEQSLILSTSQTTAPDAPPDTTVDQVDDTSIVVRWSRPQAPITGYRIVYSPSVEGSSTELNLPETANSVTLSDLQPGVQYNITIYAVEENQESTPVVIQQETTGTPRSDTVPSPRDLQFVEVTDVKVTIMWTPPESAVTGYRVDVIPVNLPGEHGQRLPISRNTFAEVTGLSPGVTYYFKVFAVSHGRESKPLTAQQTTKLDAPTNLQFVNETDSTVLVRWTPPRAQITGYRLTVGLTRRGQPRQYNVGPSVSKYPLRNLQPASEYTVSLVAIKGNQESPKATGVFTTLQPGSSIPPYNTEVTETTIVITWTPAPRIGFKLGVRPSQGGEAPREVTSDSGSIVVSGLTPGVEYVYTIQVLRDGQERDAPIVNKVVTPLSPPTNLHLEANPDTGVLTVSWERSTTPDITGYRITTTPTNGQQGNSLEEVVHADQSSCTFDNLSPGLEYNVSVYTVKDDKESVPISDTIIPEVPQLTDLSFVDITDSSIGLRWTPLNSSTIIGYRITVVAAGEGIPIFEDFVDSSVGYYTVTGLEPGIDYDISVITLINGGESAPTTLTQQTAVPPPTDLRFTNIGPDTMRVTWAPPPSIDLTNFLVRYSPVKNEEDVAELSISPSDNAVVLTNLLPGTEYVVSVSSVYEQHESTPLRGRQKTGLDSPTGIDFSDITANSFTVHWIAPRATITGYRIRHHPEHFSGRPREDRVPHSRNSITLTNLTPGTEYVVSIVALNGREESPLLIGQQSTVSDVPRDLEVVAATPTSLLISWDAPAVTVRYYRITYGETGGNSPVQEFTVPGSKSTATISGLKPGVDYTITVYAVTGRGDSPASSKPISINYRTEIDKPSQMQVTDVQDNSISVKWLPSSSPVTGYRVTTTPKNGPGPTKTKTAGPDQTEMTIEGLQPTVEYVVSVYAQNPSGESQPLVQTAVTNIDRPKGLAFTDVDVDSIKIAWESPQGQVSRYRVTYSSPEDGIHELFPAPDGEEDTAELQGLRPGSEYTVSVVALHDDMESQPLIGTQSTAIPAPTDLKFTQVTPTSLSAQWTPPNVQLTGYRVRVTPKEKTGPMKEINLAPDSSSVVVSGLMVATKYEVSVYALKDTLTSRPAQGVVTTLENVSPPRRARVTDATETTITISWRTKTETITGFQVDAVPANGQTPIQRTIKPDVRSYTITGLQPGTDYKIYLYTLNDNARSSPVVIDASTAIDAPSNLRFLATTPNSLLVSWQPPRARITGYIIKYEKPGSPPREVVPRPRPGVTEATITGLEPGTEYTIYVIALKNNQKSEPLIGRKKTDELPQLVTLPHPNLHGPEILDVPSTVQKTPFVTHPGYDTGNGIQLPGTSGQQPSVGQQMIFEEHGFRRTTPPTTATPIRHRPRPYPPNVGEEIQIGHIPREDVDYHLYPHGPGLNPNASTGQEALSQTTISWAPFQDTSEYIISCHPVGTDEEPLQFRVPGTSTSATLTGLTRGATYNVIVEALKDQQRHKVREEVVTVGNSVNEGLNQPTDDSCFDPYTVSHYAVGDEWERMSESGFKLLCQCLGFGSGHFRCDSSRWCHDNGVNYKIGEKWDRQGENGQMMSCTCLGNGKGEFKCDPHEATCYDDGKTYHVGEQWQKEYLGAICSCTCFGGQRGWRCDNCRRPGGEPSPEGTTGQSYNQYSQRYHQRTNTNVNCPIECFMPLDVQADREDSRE

B1: R1R2: class II bacterial adhesin derived peptide (SEQ ID NO: 4) that interferes with fibronectin-collagen binding (peptide)
chain: HHHHHHGSGLNGENQKEPEQGERGEAGPPLSGLSGNNQGRPSLPGLNGENQKEPEQGERGEAGPPKSN
modifications: Bacterial adhesin derived peptide R1R2
In the case of B1, in test [1], the “concentrations effective at blocking fibronectin-collagen interactions” value lay in the range of 100 to 500 nM. Moreover, in the test with human saphenous veins, the intimal hyperplasia entry was “attenuate”.

Source of the values: US9364516B2, “Treatment of fibrosis-related disorders using fibronectin binding proteins and polypeptides” (priority 2010, dated 2016).
